# “Also recorded” adds a separate entry of the source.
# B1: VEGF-B: VEGF-B produced in Drosophila cells; ligand of Flt1 receptor (protein, UniProt P49765 22-207, looked up)
# Vascular endothelial growth …: PVSQPDAPGHQRKVVSWIDVYTRATCQPREVVVPLTVELMGTVAKQLVPSCVTVQRCGGCCPDDGLECVPTGQHQVRMQILMIRYPSSQLGEMSLEEHSQCECRPKKKDSAVKPDRAATPHHRPQPRSVPGWDSAPGAPSPADITHPTPAPGPSAHAAPSTTSALTPGPAAAAADAAASSVAKGGA
# B2: GCSF: GCSF growth factor (granulocyte growth factor), gift from Dr. Riitta Alitalo (protein)
# chain: TPLGPASSLPQSFLLKCLEQVRKIQGDGAALQEKLCATYKLCHPEELVLLGHSLGIPWAPLSSCPSQALQLAGCLSQLHSGLFLYQGLLQALEGISPELGPTLDTLQLDVADFATTIWQQMEELGMAPALQPTQGAMPAFASAFQRRAGGVLVASHLQSFLEVSYRVLRHLAQP
# Legend:
# [1] = tested on: endogenous Bmx; assay: Kinase activity of endogenous Bmx immunoprecipitated from stimulated HUVECs, with or without PI-3 kinase inhibitors; format: cell-based, human; settings: HUVECs starved overnight; hVEGF and VEGF-B 60 ng/ml for 5 min, IL-3 200 ng/ml for 30 min
# Excerpt: The polyclonal antibody (Ab) against human Bmx was produced against the Tec Homology (TH) domain by Dr. Toshio Suda (amino acids 151-169, NH2-[…]—COOH (SEQ. ID. NO.: 4)). The monoclonal anti-hemagglutinin (HA)-epitope Ab, phosphotyrosine Ab, and anti-CD31 Ab were from Berkeley Antibody Company (Richmond, Calif.), from Transduction Laboratories and from DAKO, respectively. GCSF growth factor was a kind gift from Dr. Riitta Alitalo, while VEGF was obtained from R&D Systems, Minneapolis, Minn. VEGF-B was produced in Drosophila cells by Terhi Karpanen. Mouse IL-3 was obtained from Calbiochem Novabiochem. Phosphatidyl inositol-3 kinase inhibitors Wortmannin and LY294002, were both from Sigma. For inhibition of PI3K activity, 100 nM for 30 min of Wortmannin and 100 μM of LY294002 for 30 min, were used.
# Cell culture and transfections. 293T cells were grown in Dulbecco's Modified Eagle's Medium (DMEM), Human umbilical vein endothelial cells (HUVECs) were maintained in Hy-clone 199 medium. […]
# (§1) In vitro substrate immunocomplex kinase assay was performed as follows. […] The filters were fixed and washed one time in 10% TCA 8% sodium pyrophosphate, 3 times in 5% TCA and 2 times in ethanol after which radioactivity was measured using Pharmacia Wallac 1410 Liquid Scintillation Counter. […] The gel was dried and Bmx autokinase activity was detected by exposure on film.
# [2] = tested on: Bmx; assay: In vitro substrate immunocomplex kinase assay of Bmx immunoprecipitated from stimulated BmxHA expressing 32Dcl3 cells; format: cell-based, mouse; settings: BmxHA expressing 32Dcl3 pools, starved 14 hours in IL-3 and serum free media; IL-3 200 ng/ml for 30 min, hGCSF 100 ng/ml for 5 min; vs unstimulated
# Experimental: Cell culture and transfections. 293T cells were grown in Dulbecco's Modified Eagle's Medium (DMEM), Human umbilical vein endothelial cells (HUVECs) were maintained in Hy-clone 199 medium. […] All media were supplemented with 10% fetal calf serum, glutamine and antibiotics, the Hy-clone 199 medium additionally with endothelial cell growth supplement-ECGS (Upstate Biotechnology). Where indicated, cells were stimulated with growth factors, hGCSF 100 ng/ml, hVEGF and VEGF-B 60 ng/ml, for 5 min or with mIL-3 or hIL-3, 200 ng/ml, for 30 min.
# Transfections and generation of stable BmxHA and BmxHA K444R expressing pools (and clones). Transient co-transfections of293T cells were done using the Calcium Phosphate Transfection kit (GIBCO) according to manufacturer's instructions. The cells were transfected with Bmx-HA expression plasmid and the receptor plasmid or empty vector (PCI-Neo or pcDNAZ3.1) in the ration of 1:4. […]
# as §1
Molecule,endogenous Bmx kinase activity after stimulation [1],increase of Bmx kinase activity [2]
VEGF,increased endogenous Bmx activity; also recorded: activated,
B1,increased endogenous Bmx activity; also recorded: activated,
B2,,around 1.7 fold
